Patent publication US20210388081A1 (Memorial Sloan Kettering, published 2021)

Columns and labels:
[1] = molecular target: T1, FcRL3, overexpressed on 3T3 cells (UniProt Q96P31 18-734, limits assumed); assay: phage clone on 3T3-FcRL3 cells
T1 construct: whole, on cells
T1 sequence (looked up): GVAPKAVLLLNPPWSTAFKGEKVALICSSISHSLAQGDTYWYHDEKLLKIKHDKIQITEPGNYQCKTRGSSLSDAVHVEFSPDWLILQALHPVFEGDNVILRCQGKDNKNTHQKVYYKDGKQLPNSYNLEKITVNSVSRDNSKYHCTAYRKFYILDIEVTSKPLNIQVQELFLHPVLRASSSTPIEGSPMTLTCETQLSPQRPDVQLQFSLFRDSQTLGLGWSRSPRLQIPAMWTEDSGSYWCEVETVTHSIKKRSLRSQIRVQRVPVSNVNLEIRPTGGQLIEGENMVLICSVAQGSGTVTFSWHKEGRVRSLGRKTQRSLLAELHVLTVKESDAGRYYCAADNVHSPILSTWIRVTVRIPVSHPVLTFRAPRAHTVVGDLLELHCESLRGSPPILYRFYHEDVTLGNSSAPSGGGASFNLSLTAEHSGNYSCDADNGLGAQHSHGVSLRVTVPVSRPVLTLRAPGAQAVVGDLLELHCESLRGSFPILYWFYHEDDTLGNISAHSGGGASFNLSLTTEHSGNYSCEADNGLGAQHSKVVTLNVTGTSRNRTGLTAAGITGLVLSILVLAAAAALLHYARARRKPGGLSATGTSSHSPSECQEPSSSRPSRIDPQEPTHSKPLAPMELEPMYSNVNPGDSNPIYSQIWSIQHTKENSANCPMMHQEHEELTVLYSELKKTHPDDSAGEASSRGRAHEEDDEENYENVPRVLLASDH

[2] = molecular target: T2, FcRL6, overexpressed on 3T3 cells (UniProt Q6DN72 20-434, limits assumed); assay: phage clone on 3T3-FcRL6 cells
T2 construct: whole, on cells
T2 sequence (looked up): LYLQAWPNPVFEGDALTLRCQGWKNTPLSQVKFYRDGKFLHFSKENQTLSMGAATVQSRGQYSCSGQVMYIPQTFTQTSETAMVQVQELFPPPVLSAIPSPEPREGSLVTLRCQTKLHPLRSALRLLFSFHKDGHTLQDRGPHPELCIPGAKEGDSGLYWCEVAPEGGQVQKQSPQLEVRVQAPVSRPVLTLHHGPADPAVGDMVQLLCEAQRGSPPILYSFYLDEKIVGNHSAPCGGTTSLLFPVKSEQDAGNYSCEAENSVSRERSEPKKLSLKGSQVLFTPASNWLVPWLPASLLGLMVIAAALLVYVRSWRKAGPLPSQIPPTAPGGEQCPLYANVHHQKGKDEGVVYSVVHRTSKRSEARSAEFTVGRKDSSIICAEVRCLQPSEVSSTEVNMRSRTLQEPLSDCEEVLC

[3] = molecular target: T3, FcRL1, overexpressed on 3T3 cells (UniProt Q96LA6 17-429, limits assumed); assay: phage clone on 3T3-FcRL1 cells
T3 construct: whole, on cells
T3 sequence (looked up): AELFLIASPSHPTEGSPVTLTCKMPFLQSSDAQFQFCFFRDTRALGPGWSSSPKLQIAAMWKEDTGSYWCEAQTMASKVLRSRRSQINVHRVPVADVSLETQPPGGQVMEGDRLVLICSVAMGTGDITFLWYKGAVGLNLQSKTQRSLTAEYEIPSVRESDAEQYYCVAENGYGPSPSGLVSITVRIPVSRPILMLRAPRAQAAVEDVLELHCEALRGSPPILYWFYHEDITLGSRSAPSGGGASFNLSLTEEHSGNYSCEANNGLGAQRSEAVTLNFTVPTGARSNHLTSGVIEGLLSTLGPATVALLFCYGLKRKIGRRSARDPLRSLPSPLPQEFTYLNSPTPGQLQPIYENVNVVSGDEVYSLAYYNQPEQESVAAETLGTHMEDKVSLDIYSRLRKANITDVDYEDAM

[4] = molecular target: T4, FcRL4, overexpressed on 3T3 cells (UniProt Q96PJ5 20-515, limits assumed); assay: phage clone on 3T3-FcRL4 cells
T4 construct: whole, on cells
T4 sequence (looked up): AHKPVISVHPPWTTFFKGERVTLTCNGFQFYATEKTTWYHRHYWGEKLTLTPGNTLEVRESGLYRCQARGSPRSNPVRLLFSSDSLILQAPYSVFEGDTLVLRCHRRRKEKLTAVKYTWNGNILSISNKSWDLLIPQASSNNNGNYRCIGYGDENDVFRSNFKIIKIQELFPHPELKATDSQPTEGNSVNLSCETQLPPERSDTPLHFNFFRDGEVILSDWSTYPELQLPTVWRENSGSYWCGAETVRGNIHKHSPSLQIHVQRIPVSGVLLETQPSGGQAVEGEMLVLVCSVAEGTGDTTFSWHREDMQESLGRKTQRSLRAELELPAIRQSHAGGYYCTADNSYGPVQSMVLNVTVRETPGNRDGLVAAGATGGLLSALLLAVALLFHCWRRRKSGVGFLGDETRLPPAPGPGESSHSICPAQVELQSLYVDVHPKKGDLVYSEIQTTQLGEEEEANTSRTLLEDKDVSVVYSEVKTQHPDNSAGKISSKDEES

Measured: binding result

B1: ET200-103 (scFv)
scFv: QAVLTQPHSVSESPGKTVTISCTRSSGSIASNYVQWYQQRPGSAPTTVIYEDNQRPSGVPDRFSGSIDSSSNSASLTISGLKTEDEADYYCQSYDSTITVFGGGTKLTVLGSRGGGGSGGGGSGGGGSLEMAQVQLVQSGAEVKKPGSSVKVSCKASGGTFSSYAISWVRQAPGQGLEWMGGIIPIFGTANYAQKFQGRVTITADESTSTAYMELSSLRSEDTAVYYCAGEGYYDSSGYSNGDAFDIWGQGTMVTVSSTSGQAGQHHHHHHGAYPYDVPDYAS
notes: screened as phage clone; entry is VL-linker-VH-His tag-HA tag
no binding: [1] | [2] | [3] | [4]

B2: ET200-109 (scFv)
scFv: LPVLTQPPSASATPGQRVTISCSGTTSNIGSNTVHWYQQLPGTAPKLLIYNNNQRPSGVPDRFSGSKSGTSASLAISGLRSEDEATYSCATWDDSLSGVVFGGGTKLTVLGSRGGGGSGGGGSGGGGSLEMAEVQLVQSGAEVKKPGSSVKVSCKASGGTFSSYAISWVRQAPGQGLEWMGGIIPIFGTANYAQKFQGRVTITADESTSTAYMELSSLRSEDTAVYYCARDPAYGDYEYDAFDIWGQGTMVTVSSTSGQAGQHHHHHHGAYPYDVPDYAS
notes: as for B1
no binding: [1] | [2] | [3] | [4]

B3: ET200-105 (scFv)
scFv: SYVLTQPPSVSVSPGQTASITCSGDRLTNKYVSWYQQKPGQSPVLVIYEDAKRPSGIPARFSGSNSGNTATLTISGTQAMDESEYYCQAWDSSVVVFGGGTKLTVLGSRGGGGSGGGGSGGGGSLEMAEVQLVESGGGLVQPGRSLRLSCAASGFTFDDYAMHWVRQAPGKGLEWVSGISWNSGSIGYADSVKGRFTISRDNAKNSLYLQMNSLRDEDTALYYCAKDRGGGVIVKDAFDIWGQGTMVTVSSTSGQAGQHHHHHHGAYPYDVPDYAS
notes: as for B1
no binding: [1] | [2] | [3] | [4]

B4: ET200-101 (scFv)
scFv: QAVLTQPPSASGAPGQRVTVSCSGSNSNIGSNYVNWYQQFPGTAPKLLMYSSSQRPSGVPDRFSGSKSGTSASLAISGLHSEDEADYYCATWDDSLNAWVFGGGTKLTVLGSRGGGGSGGGGSGGGGSLEMAEVQLVQSGAEVRKPGASVKVSCKTSGYTFTWYAIHWVRQAPGQRLEWMGWINAGSGNTKYSQKFQGRVTLTRDTSASTAYMELSSLRSDDTAVYYCARPNNYGSGGDVFDIWGQGTMVTVSSTSGQAGQHHHHHHGAYPYDVPDYAS
notes: as for B1
no binding: [1] | [2] | [3] | [4]

B5: ET200-108 (scFv)
scFv: QSVLTQPPSVSAPPGQKVTISCSGSSSNIGNNYVSWYQQFPGTAPKLLIYDNNKRPSGISDRFSGSKSGTSATLGIAGLQTGDEADYYCGTWDTSLSGFYVFGSGTKVTVLGSRGGGGSGGGGSGGGGSLEMAEVQLVQSGAEVKKPGASVKVSCKASGYTFTSYTISWVRQAPGQGLEWMGWISTYNGLTNYAQNLQGRVTMTTDTFTTTAYMELRSLRSDDTAVYYCVREGSPDYGDFASFDYWGQGTLVTVSSTSGQAGQHHHHHHGAYPYDVPDYAS
notes: as for B1
no binding: [1] | [2] | [3] | [4]

B6: ET200-106 (scFv)
scFv: SYELTQPPAASGTPGQRVTISCSGGVSNIGSGALNWYQQLPGTAPKLLIYSYNQRPSGVSDRFSGSRSATSASLAISGLQSEDEADYYCATWDDSVNGWVFGGGTKLTVLGSRGGGGSGGGGSGGGGSLEMAEVQLVESGAEVKKPGDSVKVSCKPSGYNFLNYGINWVRQAPGQGLEWMGWISTYTGNTNYAQKLQGRVTFTTDTSTSTAYMEMRSLRSDDTAVYYCARQQGGGWYDVWGQGTLVTVSSTSGQAGQHHHHHHGAYPYDVPDYAS
notes: as for B1
no binding: [1] | [2] | [3] | [4]

B7: ET200-107 (scFv)
scFv: QSVVTQPPSVSAAPGEKVTISCSGSNFNVGNNDVSWYQQLPGAAPKLLIYDNNKRPSGIPDRFSGSKSGTSATLDITGLHSDDEADYYCGTWDSSLNTGGVFGTGTKVTVLGSRGGGGSGGGGSGGGGSLEMAEVQLVQSGAEVKKPGASVKVSCKASGYTFTSYTISWVRQAPGQGLEWMGWISTYNGLTNYAQNLQGRVTMTTDTFTTTAYMELRSLRSDDTAVYYCVREGSPDYGDFASFDYWGQGTLVTVSSTSGQAGQHHHHHHGAYPYDVPDYAS
notes: as for B1
no binding: [1] | [2] | [3] | [4]

B8: ET200-102 (scFv)
scFv: QSVVTQPPSVSAAPGQKVTISCSGSSSNIGNNYVSWYQQLPGTAPKLLIYDNNKRPSGIPDRFSGSKSGTSATLGITGLQTGDEADYYCGTWDSSLSAYVFGTGTKVTVLGSRGGGGSGGGGSGGGGSLEMAQVQLVQSGAEVKKPGASVKVSCKASGYTFTNYALHWVRQAPGQGLEWMAWINGGNGNTKYSQNFQGRVTITRDTSASTAYMELSSLRSEDTAVYYCAKPEETAGTIHFDYWGQGTPVTVSSTSGQAGQHHHHHHGAYPYDVPDYAS
notes: as for B1
no binding: [1] | [2] | [3] | [4]

B9: ET200-007 (scFv)
scFv: SYVLTQPLSVSVAPGKTARITCGGNNIGSKTVHWYQQKPGQAPVLVIYYDSDRPSGIPERFSGSNSGNTATLTISRVEAGDEADYYCQVWDSSSDHRVFGGGTKLTVLGSRGGGGSGGGGSGGGGSLEMAQVQLQESGPGLVKPSETLSLTCNVSGYSISSGYFWGWIRQPPGKGLEWIGSIYHSRSTYYNPSLKSRVTISVDTSKNQFSLKLNSVTAADTAVYYCARGYGYFDYWGQGTLVTVSSTSGQAGQHHHHHHGAYPYDVPDYAS
notes: as for B1
no binding: [1] | [2] | [3] | [4]

B10: ET200-110 (scFv)
scFv: QSVLTQPPSASGTPGQRVTISCSGSSSNIGTNGVNWFQQFPGTAPKLLIYTNDQRPSGVPDRFSGSKSGTSASLAISGLQSADEADYYCAVWDHSLNGPVFGGGTKLTVLGSRGGGGSGGGGSGGGGSLEMAQVQLVQSGAEVKKPGSSVKVSCKASGGTFSSYAISWVRQAPGQGLEWMGGIIPIFGTANYAQKFQGRVTITADESTSTAYMELSSLRSEDTAVYYCARGAGFDAFDIWGQGTMVTVSSTSGQAGQHHHHHHGAYPYDVPDYAS
notes: as for B1
no binding: [1] | [2] | [3] | [4]
